Source: US20230052369A1 (Zymeworks, published 2023)
One block for each binder: values may come before it.

How the values were obtained:
[1] = target: T1, recombinant His-tagged human FRα (human, UniProt P15328 25-234); assay: BLI, n=2
T1 construct: Bought protein; also called hFRα; FRα-HIS
Protocol: (§1) The assay buffer used was KB buffer (kinetics buffer, composed of PBS pH 7.4, 0.1% BSA, 0.02% Tween 20, 0.05% sodium azide) supplemented with 0.06% Tween 20. The experiment was conducted at 25° C. with a shake speed of 1000 rpm.
(§2) Data analysis was performed using the Data analysis software 9.0′ (ForteBio). The reference-subtracted binding curves were globally fitted to the 1:1 interaction model to generate the binding kinetic parameters kₒₙ, koff, and the dissociation constant KD.
All parameters remained the same except for the dissociation phase which was recorded for 1500 s.

[2] = target: T1, recombinant His-tagged human FRα; assay: BLI, supernatant, n=1
Protocol: as §1, §2

[3] = target: T1, recombinant His-tagged human FRα; assay: BLI, purified, average n=2
Protocol: as §1, §2

T1 sequence (P15328 25-234 limits assumed): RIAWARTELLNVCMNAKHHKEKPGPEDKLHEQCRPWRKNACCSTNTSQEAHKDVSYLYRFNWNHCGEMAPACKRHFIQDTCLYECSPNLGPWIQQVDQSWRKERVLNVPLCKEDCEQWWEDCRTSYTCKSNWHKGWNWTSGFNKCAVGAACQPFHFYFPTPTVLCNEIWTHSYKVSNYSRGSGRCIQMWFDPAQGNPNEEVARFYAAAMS

B1: v29676 (scFv)
scFv: DIQMTQSPSSLSASVGDRVTITCQASQSIYSSLAWYQQKPGKAPKLLIYDASHLASGVPSRFSGSRYGTDFTLTISSVQPEDFATYYCQGGWYSSAATYVPNTFGGGTKVEVKGGGGSGGGGSGGGGSEVQLVESGGGLVQPGGSLRLSCAASGFTISNNYYMCWVRQAPGKGLEWIACIYGGISGRTYYADSAKGRFTISKDSSNTVYLQMNSLRAEDTAVYYCVRGYVGTSNLWGQGTLVTVSS
notes: One-armed: scFv fused by an Ala-Ala linker to the N-terminus (hinge) of Het FcA, paired with Het FcB Fc; also called N-term VL-(short)-VH
Kd [1]: 3.9 nM

B2: v29682 (scFv)
scFv: DIQMTQSPSSLSASVGDRVTITCQASQSIYSSLAWYQQKPGKAPKLLIYDASHLASGVPSRFSGSRYGTDFTLTISSVQPEDFATYYCQGGWYSSAATYVPNTFGCGTKVEVKGGGGSGGGGSGGGGSEVQLVESGGGLVQPGGSLRLSCAASGFTISNNYYMCWVRQAPGKCLEWIACIYGGISGRTYYADSAKGRFTISKDSSNTVYLQMNSLRAEDTAVYYCVRGYVGTSNLWGQGTLVTVSS
notes: One-armed, scFv at the C-terminus of Het FcA; VL-G100C and VH-G44C (Kabat) already in the entry; also called C-term VL-(short)-VH + disulfide
Kd [1]: 2.1 nM

B4: v23811 (antibody, human IgG1, kappa, V domains shown)
VH: EVQLVESGGGLVQPGGSLRLSCAASGFTISNNYYMCWVRQAPGKGLEWIACIYGGISGRTYYADSAKGRFTISKDSSKNTVYLQMNSLRAEDTAVYYCVRGYVGTSNLWGQGTLVTVSS
VL: DIQMTQSPSSLSASVGDRVTITCQASQSIYSSLAWYQQKPGKAPKLLIYDASHLASGVPSRFSGSGSGTDFTLTISSVQPEDAATYYCQGGWYSSAATYVPNTFGGGTKVEVKR
notes: also called humanized 8K22 H3L4
Kd [2]: 22.5 nM
Kd [3]: 8.83 nM

B8: v23805 (antibody, human IgG1, kappa, V domains shown)
VH: EVQLVESGGGLVQPGGSLRLSCAASGFTISNNYYMCWVRQAPGKGLEWIACIYGGISGRTYYADSAKGRFTISKDNSKNTVYLQMNSLRAEDTAVYYCVRGYVGTSNLWGQGTLVTVSS
VL: DIQMTQSPSSLSASVGDRVTITCQASQSIYSSLAWYQQKPGKAPKLLIYDASHLASGVPSRFSGSRYGTDFTLTISSVQPEDFATYYCQGGWYSSAATYVPNTFGGGTKVEVKR
notes: also called humanized 8K22 H2L3
Kd [2]: 16.2 nM
Kd [3]: 10.2 nM

B9: v23808 (antibody, human IgG1, kappa, V domains shown)
VH: EVQLVESGGGLVQPGGSLRLSCAASGFTISNNYYMCWVRQAPGKGLEWIACIYGGISGRTYYADWAKGRFTISKDSSKNTVYLQMNSLRAEDTAVYYCVRGYVGTSNLWGQGTLVTVSS
VL: DIQMTQSPSSLSASVGDRVTITCQASQSIYSSLAWYQQKPGKAPKLLIYDASHLASGVPSRFSGSRYGTDFTLTISSVQPEDFATYYCQGGWYSSAATYVPNTFGGGTKVEVKR
notes: also called humanized 8K22 H5L3
Kd [2]: 19.3 nM
Kd [3]: 13.1 nM

B10: v23818 (antibody, human IgG1, kappa, V domains shown)
VH: EVQLVESGGGLVQPGGSLRLSCAASGFTISNNYYMCWVRQAPGKGLEWIACIYGGISGRTYYADWAKGRFTISKDSSKNTVYLQMNSLRAEDTAVYYCVRGYVGTSNLWGQGTLVTVSS
VL: DIQMTQSPSSLSASVGDRVTITCQASQSIYSSLAWYQQKPGKAPKLLIYDASHLASGVPSRFSGSRYGTDFTLTISSVQPEDAATYYCQGGWYSSAATYVPNTFGGGTKVEVKR
notes: also called humanized 8K22 H5L5
Kd [2]: 17.4 nM
Kd [3]: 6.13 nM

B11: v23815 (antibody, human IgG1, kappa, V domains shown)
VH: EVQLVESGGGLVQPGGSLRLSCAASGFTISNNYYMCWVRQAPGKGLEWIACIYGGISGRTYYADSAKGRFTISKDNSKNTVYLQMNSLRAEDTAVYYCVRGYVGTSNLWGQGTLVTVSS
VL: DIQMTQSPSSLSASVGDRVTITCQASQSIYSSLAWYQQKPGKAPKLLIYDASHLASGVPSRFSGSRYGTDFTLTISSVQPEDAATYYCQGGWYSSAATYVPNTFGGGTKVEVKR
notes: also called humanized 8K22 H2L5
Kd [2]: 16.7 nM
Kd [3]: 16.5 nM

B13: v29677 (scFv)
scFv: DIQMTQSPSSLSASVGDRVTITCQASQSIYSSLAWYQQKPGKAPKLLIYDASHLASGVPSRFSGSRYGTDFTLTISSVQPEDFATYYCQGGWYSSAATYVPNTFGGGTKVEVKGGSGGGSGGGSGGGSGGGSGEVQLVESGGGLVQPGGSLRLSCAASGFTISNNYYMCWVRQAPGKGLEWIACIYGGISGRTYYADSAKGRFTISKDSSNTVYLQMNSLRAEDTAVYYCVRGYVGTSNLWGQGTLVTVSS
notes: One-armed, scFv at the N-terminus of Het FcA (Ala-Ala linker); also called N-term VL-(long)-VH
Kd [1]: 5 nM

B14: v29684 (scFv)
scFv: DIQMTQSPSSLSASVGDRVTITCQASQSIYSSLAWYQQKPGKAPKLLIYDASHLASGVPSRFSGSRYGTDFTLTISSVQPEDFATYYCQGGWYSSAATYVPNTFGCGTKVEVKGGSGGGSGGGSGGGSGGGSGEVQLVESGGGLVQPGGSLRLSCAASGFTISNNYYMCWVRQAPGKCLEWIACIYGGISGRTYYADSAKGRFTISKDSSNTVYLQMNSLRAEDTAVYYCVRGYVGTSNLWGQGTLVTVSS
notes: One-armed, scFv at the C-terminus of Het FcA; VL-G100C and VH-G44C already in the entry; also called C-term VL-(long)-VH + disulfide
Kd [1]: 0.88 nM

B15: v29675 (antibody, V domains shown)
VH: EVQLVESGGGLVQPGGSLRLSCAASGFTISNNYYMCWVRQAPGKGLEWIACIYGGISGRTYYADSAKGRFTISKDSSNTVYLQMNSLRAEDTAVYYCVRGYVGTSNLWGQGTLVTVSS
VL: DIQMTQSPSSLSASVGDRVTITCQASQSIYSSLAWYQQKPGKAPKLLIYDASHLASGVPSRFSGSRYGTDFTLTISSVQPEDFATYYCQGGWYSSAATYVPNTFGGGTKVEVK
notes: One-armed antibody, humanized 8K22 (H4L3 of v23807) Fab on a heterodimeric IgG1 Fc; also called N-term Parent Fab; Parent Fab antibody
Kd [1]: 4.1 nM

B16: v23802 (antibody, human IgG1, kappa)
heavy: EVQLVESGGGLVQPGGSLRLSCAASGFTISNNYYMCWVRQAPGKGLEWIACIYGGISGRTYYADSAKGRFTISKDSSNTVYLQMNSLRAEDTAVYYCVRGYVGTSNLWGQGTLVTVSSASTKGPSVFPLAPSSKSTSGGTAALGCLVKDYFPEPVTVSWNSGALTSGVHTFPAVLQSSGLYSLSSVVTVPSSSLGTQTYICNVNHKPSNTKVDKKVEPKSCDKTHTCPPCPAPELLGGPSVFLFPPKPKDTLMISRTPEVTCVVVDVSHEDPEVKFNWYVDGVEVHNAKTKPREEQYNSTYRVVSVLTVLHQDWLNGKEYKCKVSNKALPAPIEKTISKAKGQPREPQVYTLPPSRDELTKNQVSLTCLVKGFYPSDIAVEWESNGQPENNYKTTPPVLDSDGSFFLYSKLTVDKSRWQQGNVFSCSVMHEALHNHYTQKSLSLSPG
light: DIQMTQSPSSLSASVGDRVTITCQASQSIYSSLAWYQQKPGKAPKLLIYDASHLASGVPSRFSGSGSGTDFTLTISSVQPEDFATYYCQGGWYSSAATYVPNTFGGGTKVEVKRTVAAPSVFIFPPSDEQLKSGTASVVCLLNNFYPREAKVQWKVDNALQSGNSQESVTEQDSKDSTYSLSSTLTLSKADYEKHKVYACEVTHQGLSSPVTKSFNRGEC
notes: also called humanized 8K22 H4L2
Kd [2]: 17.9 nM
Kd [3]: 8.53 nM

B18: v23812 (antibody, human IgG1, kappa, V domains shown)
VH: EVQLVESGGGLVQPGGSLRLSCAASGFTISNNYYMCWVRQAPGKGLEWIACIYGGISGRTYYADSAKGRFTISKDSSNTVYLQMNSLRAEDTAVYYCVRGYVGTSNLWGQGTLVTVSS
VL: DIQMTQSPSSLSASVGDRVTITCQASQSIYSSLAWYQQKPGKAPKLLIYDASHLASGVPSRFSGSGSGTDFTLTISSVQPEDAATYYCQGGWYSSAATYVPNTFGGGTKVEVKR
notes: also called humanized 8K22 H4L4
Kd [2]: 19.5 nM
Kd [3]: 8.74 nM

B19: v23797 (antibody, human IgG1, kappa)
heavy: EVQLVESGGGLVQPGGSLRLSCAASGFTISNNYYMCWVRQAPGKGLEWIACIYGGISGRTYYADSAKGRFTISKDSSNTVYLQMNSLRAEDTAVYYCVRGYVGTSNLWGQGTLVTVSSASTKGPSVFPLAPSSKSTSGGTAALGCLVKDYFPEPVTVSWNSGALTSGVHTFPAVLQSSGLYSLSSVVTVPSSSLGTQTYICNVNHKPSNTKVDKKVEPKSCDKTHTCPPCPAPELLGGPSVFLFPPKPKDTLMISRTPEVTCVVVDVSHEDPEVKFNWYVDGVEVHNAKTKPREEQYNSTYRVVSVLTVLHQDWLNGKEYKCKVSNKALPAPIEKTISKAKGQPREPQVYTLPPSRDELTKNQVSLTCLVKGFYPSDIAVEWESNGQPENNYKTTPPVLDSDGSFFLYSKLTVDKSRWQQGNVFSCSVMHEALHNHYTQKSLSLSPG
light: DIQMTQSPSSLSASVGDRVTITCQASQSIYSSLAWYQQKPGKAPKLLIYDASHLASGVPSRFSGSGSGTDFTLTISSVQPEDFATYYCQGGWYSSAATYVPNTFGGGTKVEIKRTVAAPSVFIFPPSDEQLKSGTASVVCLLNNFYPREAKVQWKVDNALQSGNSQESVTEQDSKDSTYSLSSTLTLSKADYEKHKVYACEVTHQGLSSPVTKSFNRGEC
notes: also called humanized 8K22 H4L1
Kd [2]: 14.9 nM
Kd [3]: 11.9 nM

Results, then the binder that gave them:

Kd [2]: 9.29 nM
Kd [3]: 4.66 nM
B3: v23804 (antibody, human IgG1, kappa, V domains shown)
VH: EVQLVESGGGLVQPGGSLRLSCAASGFTISNNYYMCWVRQAPGKGLEWVSCIYGGISGRTYYADSVKGRFTISKDNSKNTLYLQMNSLRAEDTAVYYCVRGYVGTSNLWGQGTLVTVSS
VL: DIQMTQSPSSLSASVGDRVTITCQASQSIYSSLAWYQQKPGKAPKLLIYDASHLASGVPSRFSGSRYGTDFTLTISSVQPEDFATYYCQGGWYSSAATYVPNTFGGGTKVEVKR
notes: also called humanized 8K22 H1L3

Kd [2]: 10.1 nM
Kd [3]: 6.31 nM
B5: v23814 (antibody, human IgG1, kappa, V domains shown)
VH: EVQLVESGGGLVQPGGSLRLSCAASGFTISNNYYMCWVRQAPGKGLEWVSCIYGGISGRTYYADSVKGRFTISKDNSKNTLYLQMNSLRAEDTAVYYCVRGYVGTSNLWGQGTLVTVSS
VL: DIQMTQSPSSLSASVGDRVTITCQASQSIYSSLAWYQQKPGKAPKLLIYDASHLASGVPSRFSGSRYGTDFTLTISSVQPEDAATYYCQGGWYSSAATYVPNTFGGGTKVEVKR
notes: also called humanized 8K22 H1L5

Kd [2]: 11.5 nM
Kd [3]: 7 nM
B6: v23806 (antibody, human IgG1, kappa, V domains shown)
VH: EVQLVESGGGLVQPGGSLRLSCAASGFTISNNYYMCWVRQAPGKGLEWIACIYGGISGRTYYADSAKGRFTISKDSSKNTVYLQMNSLRAEDTAVYYCVRGYVGTSNLWGQGTLVTVSS
VL: DIQMTQSPSSLSASVGDRVTITCQASQSIYSSLAWYQQKPGKAPKLLIYDASHLASGVPSRFSGSRYGTDFTLTISSVQPEDFATYYCQGGWYSSAATYVPNTFGGGTKVEVKR
notes: also called humanized 8K22 H3L3

Kd [2]: 12.1 nM
Kd [3]: 9.03 nM
B7: v23809 (antibody, human IgG1, kappa, V domains shown)
VH: EVQLVESGGGLVQPGGSLRLSCAASGFTISNNYYMCWVRQAPGKGLEWVSCIYGGISGRTYYADSVKGRFTISKDNSKNTLYLQMNSLRAEDTAVYYCVRGYVGTSNLWGQGTLVTVSS
VL: DIQMTQSPSSLSASVGDRVTITCQASQSIYSSLAWYQQKPGKAPKLLIYDASHLASGVPSRFSGSGSGTDFTLTISSVQPEDAATYYCQGGWYSSAATYVPNTFGGGTKVEVKR
notes: also called humanized 8K22 H1L4

Kd [2]: 10.4 nM
Kd [3]: 10.6 nM
B12: v23816 (antibody, human IgG1, kappa, V domains shown)
VH: EVQLVESGGGLVQPGGSLRLSCAASGFTISNNYYMCWVRQAPGKGLEWIACIYGGISGRTYYADSAKGRFTISKDSSKNTVYLQMNSLRAEDTAVYYCVRGYVGTSNLWGQGTLVTVSS
VL: DIQMTQSPSSLSASVGDRVTITCQASQSIYSSLAWYQQKPGKAPKLLIYDASHLASGVPSRFSGSRYGTDFTLTISSVQPEDAATYYCQGGWYSSAATYVPNTFGGGTKVEVKR
notes: also called humanized 8K22 H3L5

Kd [2]: 10.9 nM
Kd [3]: 7.07 nM
B17: v23807 (antibody, human IgG1, kappa, V domains shown)
VH: EVQLVESGGGLVQPGGSLRLSCAASGFTISNNYYMCWVRQAPGKGLEWIACIYGGISGRTYYADSAKGRFTISKDSSNTVYLQMNSLRAEDTAVYYCVRGYVGTSNLWGQGTLVTVSS
VL: DIQMTQSPSSLSASVGDRVTITCQASQSIYSSLAWYQQKPGKAPKLLIYDASHLASGVPSRFSGSRYGTDFTLTISSVQPEDFATYYCQGGWYSSAATYVPNTFGGGTKVEVKR
notes: also called humanized 8K22 H4L3

Kd [2]: 9.5 nM
Kd [3]: 6.41 nM
B20: v23817 (antibody, human IgG1, kappa, V domains shown)
VH: EVQLVESGGGLVQPGGSLRLSCAASGFTISNNYYMCWVRQAPGKGLEWIACIYGGISGRTYYADSAKGRFTISKDSSNTVYLQMNSLRAEDTAVYYCVRGYVGTSNLWGQGTLVTVSS
VL: DIQMTQSPSSLSASVGDRVTITCQASQSIYSSLAWYQQKPGKAPKLLIYDASHLASGVPSRFSGSRYGTDFTLTISSVQPEDAATYYCQGGWYSSAATYVPNTFGGGTKVEVKR
notes: also called humanized 8K22 H4L5
